Substrate in data set [1]: CC(C)(COP(=O)(O)OP(=O)(O)OC[C@H]1O[C@@H](n2cnc3c(N)ncnc32)[C@H](O)[C@@H]1OP(=O)(O)O)[C@@H](O)C(=O)NCCC(=O)NCCS
In words: purified protein, by the assay type. The conditions noted are these: other: thiolysis, 25° C., β-ketocaproyl-CoA fixed at 60 μM.

Data set [2] concerns E. coli biosynthetic threonine deaminase. Particulars: for Threonine Deaminase Specific Activity / % activity relative to the results with 0 mM isoleucine: 10 mM threonine; for Hill Coefficient (n) / Km: fit to Hill equation; for Km: read-out: Km Threonine. Here is the method:
Kinetic analysis of the wild-type and mutant threonine deaminases was performed by determining threonine turnover catalyzed by these threonine deaminases as assayed by the method of Burns (1971). Specifically, α-keto-butyrate production was monitored by coupling to L-lactic dehydrogenase (LDH)-catalyzed reduction of the α-ketoacid in the presence of NADH to form (L)-2-hydroxybutyrate and NAD+. The disappearance of NADH absorbance at 340 nm provides a measure of the threonine deaminase activity. Final reaction conditions were 100 mM KPi, pH 7.8, 0.20 mM NADH, 10 units/mL LDH (defined as LDH turnover of α-ketobutyrate, not pyruvate), and variable threonine. R. Rubrum was grown according to Brandl et al., 1989. The growth and induction of E. coli cells overexpressing the mutant and wild-type biosynthetic threonine deaminases is described above. Cell extracts of R. Rubrum and E. coli were prepared by sonicating pelleted cells (≈0.5 g from 100 ml of culture) in 2 ml of 100 mM KPi, pH 7.0, containing 5% (v/v) glycerol. After centrifugation to remove cellular debris, protein concentrations were determined by the method of Bradford (1976), and threonine deaminase activity was measured.
The kinetic parameters Km and Vmax, and the level of positive cooperativity, i.e., the deviation from normal saturation kinetics where at low substrate concentration the substrate turnover rate is less than a non-cooperative system, were determined. These values were found by fitting the rate data to the Hill equation (Equation 1), which incorporates the coefficient n into the normal Michaelis-Menten equation (n=1 for a non-cooperative system).
In addition to the kinetic parameters, the degree of inhibition of threonine deaminase by isoleucine was also measured at fixed levels of threonine.

The test system of another data set is threonine deaminase. Briefly: Threonine deaminase activity in extracts of transformed E. coli DH5α (in vivo analysis of cloned ilvA genes). The data set is classed as biochemical. The conditions noted are these: 0 mM isoleucine, 10 mM threonine. An excerpt: E. coli DH5α cells were transformed with pJM9238 (Kidwell et al., 1995) containing the PHB operon of A. eutrophus by CaCl2/heat shock treatment The PHB operon was under the inducible control of the ptac promoter. E. coli containing pJM9236 were used as a background control with respect to threonine deaminase activity.
E. coli DH5α cells were also cotransformed by CaCl2/heat shock treatment with pJM9238 and pMON25660 (FIG. 5) containing the wild-type E. coli threonine deaminase, under ptrc inducible control.
In a third experiment, E. coli DH5α cells were cotransformed with pJM9238 and pMON25683 (FIG. 11) containing the mutant E. coli ilvA466 (L481F) threonine deaminase, under ptrc inducible control.
(§1) Transformed cells were grown on M9 minimal salts plus 0.2% gluconate and 25 mM L-threonine. At early log phase, the cells were induced with IPTG to induce expression of all four enzymes (i.e., PhbA, PhbB, PhbC, and IlvA or IlvA466). […] The level of α-ketobutyrate was determined by reverse-phase HPLC isolation of the dinitrophenylhydrazine derivative of the α-ketoacid according to Qureshi et al., (1982). Quantitation was based on peak integration comparisons to a standard curve.

For a further data set, the system named is E. coli DH5α cells. Briefly: Intracellular α-ketobutyrate in transformed E. coli DH5α (HPLC of dinitrophenylhydrazine derivative). The data set is classed as cell-based. Particulars: for [α-ketobutyrate]: 1 ml extract from approximately 50 mg cells, M9 + 0.2% gluconate + 25 mM L-threonine; for α-ketobutyrate level relative to cells containing no overexpressed threonine deaminase: transformed E. coli DH5α. The procedure:
as §1

For the next data set, the system named is soybean callus. In words: Expression and activity of E. coli IlvA in stably transformed soybean callus. The conditions noted are these: soybean calli 518-4, 518-15, 518-16, 518-17 transformed with pMON25668. The data set is classed as cell-based. The source says:
As shown above, the E. coli IlvA proteins can be functionally expressed in a plant transient expression system. In order to test the expression of a biosynthetic threonine deaminase in a stably transformed plant tissue, non-differentiating callus derived from soybean hypocotyl tissue was transformed with a plasmid containing the E. coli wild-type ilvA threonine deaminase gene using Agrobacterium tumefaciens ABI (Koncz and Schell, 1986).
Soybean callus tissue was transformed with binary Ti plasmid pMON25668 (FIG. 17). Plasmid pMON25668 contains the e35S-expressed, plastid-targeted (ARABSSU1A) E. coli wild-type ilvA threonine deaminase gene, the e35S-expressed, plastid-targeted (ARABSSU1A) A. eutrophus phbA (β-ketothiolase) gene, and the e35s-expressed neomycin phosphotransferase type II (NptII) gene for kanamycin resistance. […] contains two border sequences for T-DNA transfer into the plant chromosome. The right border sequence is the only border required for T-DNA transfer into the plant; however, including the left border sequence terminates T-DNA integration at that point, thereby limiting the unnecessary incorporation of “extra” DNA sequences into the plant chromosome. pMON25668 also contains the minimun sequence of ori-322 for replication and maintenance in E. coli as well as ori-V of the broad host origin RK2 for replication in Agrobacterium. […]

Here are results for three molecules from patent publication US6946588B2, “Nucleic acid encoding a modified threonine deaminase and methods of use” (Monsanto Technology LLC, priority 1996, dated 2005).

Changes are numbered by the printed parent chain. Names and notes keep the numbering of the source. Where two headings read alike, the source gives them in different places. Where only a bound is given, the exact number is not on record here.

B1: BktB β-ketothiolase (Cupriavidus necator H16) (protein)
chain: TREVVVVSGVRTAIGTFGGSLKDVAPAELGALVVREALARAQVSGDDVGHVVFGNVIQTEPRDMYLGRVAAVNGGVTINAPALTVNRLCGSGLQAIVSAAQTILLGDTDVAIGGGAESMSRAPYLAPAARWGARMGDAGLVDMMLGALHDPFHRIHMGVTAENVAKEYDISRAQQDEAALESHRRASAAIKAGYFKDQIVPVVSKGRKGDVTFDTDEHVRHDATIDDMTKLRPVFVKENGTVTAGNASGLNDAAAAVVMMERAEAERRGLKPLARLVSYGHAGVDPKAMGIGPVPATKIALERAGLQVSDLDVIEANEAFAAQACAVTKALGLDPAKVNPNGSGISLGHPIGATGALITVKALHELNRVQGRYALVTMCIGGGQGIAAIFERI
Take B1: the Km in data set [1] was 0.053 ± 0.006 mM.

B2: E. coli wild-type: wild-type E. coli biosynthetic threonine deaminase encoded by the ilvA gene (SEQ ID NO:1) (protein, listed as Escherichia coli)
chain: MADSQPLSGAPEGAEYLRAVLRAPVYEAAQVTPLQKMEKLSSRLDNVILVKREDRQPVHSFKLRGAYAMMAGLTEEQKAHGVITASAGNHAQGVAFSSARLGVKALIVMPTATADIKVDRLRGFGGEVLLHGANFDEAKRKAIELSQQQGFTWVPPFDHPMVIAGQGTLALELLQQDAHLDRVFVPVGGGGLAACVAVLIKQLMPQIKVIAVEAEDSACLKAALDAGHPVDLPRVGLFAEGVAVKRIGDETFRLCQEYLDDIITVDSDAICAAMKDLFEDVRAVAEPSGALALAGMKKYIALHNIRGERLAHILSGANVNFHGLRYVSERCELVEQREALLAVTIPEEKGSFLKFCQLLGGRSVTEFNYRFADAKNACIFVGVRLSRGLEERKEILQMLNDGGYSVVDLSDDEMAKLHVRYMVGGRPSHPLQERLYSFEFPESPGALLRFLNTLGTYWNISLFHYRSHGTDYGRVLAAFELGDHEPDFETRLNELGYDCHDETNNPAFRFFLAG
For the molecule B2, the “Threonine Deaminase Specific Activity” value in data set [2] (0 mM isoleucine) stood at 16.7 u/mg; in data set [2] (1.0 mM isoleucine), 0.3 u/mg; in data set [2] (10.0 mM isoleucine), 0.3 u/mg; in the data set on threonine deaminase, 4.20 u/mg. Also, the “% activity relative to the results with 0 mM isoleucine” value (“% activity relative to the results” for short) in data set [2] (1.0 mM isoleucine) and in data set [2] (10.0 mM isoleucine) was less than 2% throughout. Further, in data set [2], the “Hill Coefficient (n)” value was 1.5 ± 0.2. Also, the Michaelis-Menten constant (Km) in data set [2] is 5 ± 1 mM. Also, the “[α-ketobutyrate]” value in the data set on E. coli DH5α cells is 41.8 µM. Further, in the data set on E. coli DH5α cells, the “α-ketobutyrate level relative to cells containing no overexpressed threonine deaminase” value is given as “about a three-fold increase”. The “expression (Western blot) and enzymatic activity in transformed calli” value with soybean callus was “can be expressed and maintain enzymatic activity”.

B3: E. coli L481F (protein)
chain: B2 chain with R120A, L121V, R140A, C195G, V334G, L481F
Regarding B3, the “Threonine Deaminase Specific Activity” value in data set [2] (0 mM isoleucine) stood at 20.3 u/mg. Further, in data set [2] (1.0 mM isoleucine), the “% activity relative to the results” value is listed as 56% and the “Threonine Deaminase Specific Activity” value is reported as 11.3 u/mg. In data set [2] (10.0 mM isoleucine), the “% activity relative to the results” value was less than 2% and the “Threonine Deaminase Specific Activity” value turned out to be 0.3 u/mg. For the same molecule, in data set [2], the “Hill Coefficient (n)” value is given as 1.22 ± 0.01 and the Km was 3.08 ± 0.03 mM. Also, in the data set on threonine deaminase, the “Threonine Deaminase Specific Activity” value was 0.59 u/mg. Besides, in the data set on E. coli DH5α cells, the “[α-ketobutyrate]” value was determined as 579 µM and the “α-ketobutyrate level relative to cells containing no overexpressed threonine deaminase” value is on record as “greater than 40 times”.
